Experimental data published in article PMC9482650, “Quantitative fragmentomics allow affinity mapping of interactomes” (Nature Communications, 2022).

T1: DLG3_2, Q92796
T1 sequence (Q92796 221-321, limits assumed, looked up): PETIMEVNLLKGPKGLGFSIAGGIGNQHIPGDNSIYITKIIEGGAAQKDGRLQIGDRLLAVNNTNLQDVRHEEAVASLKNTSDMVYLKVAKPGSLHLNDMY

T2: GRIP1_2, Q9Y3R0
T2 sequence (Q9Y3R0 145-248, limits assumed, looked up): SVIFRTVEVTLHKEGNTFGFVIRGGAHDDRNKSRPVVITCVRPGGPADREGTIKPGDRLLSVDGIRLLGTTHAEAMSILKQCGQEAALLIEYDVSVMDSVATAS

T3: LNX2_2, Q8N448
T3 sequence (Q8N448 334-432, limits assumed, looked up): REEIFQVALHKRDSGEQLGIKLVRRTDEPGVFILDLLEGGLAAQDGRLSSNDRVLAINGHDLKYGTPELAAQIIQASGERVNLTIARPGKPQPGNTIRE

T4: APBA3_1, O96018
T4 sequence (O96018 389-490, limits assumed, looked up): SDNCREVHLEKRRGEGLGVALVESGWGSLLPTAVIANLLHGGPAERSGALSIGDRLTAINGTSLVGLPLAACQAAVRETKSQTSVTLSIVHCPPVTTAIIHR

T5: TX1BP3, O14907
T5 sequence (O14907 10-122, limits assumed, looked up): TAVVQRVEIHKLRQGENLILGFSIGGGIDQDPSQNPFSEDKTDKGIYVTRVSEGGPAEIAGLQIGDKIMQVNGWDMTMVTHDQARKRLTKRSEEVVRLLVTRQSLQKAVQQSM

T6: DLG3_1, Q92796
T6 sequence (Q92796 125-227, limits assumed, looked up): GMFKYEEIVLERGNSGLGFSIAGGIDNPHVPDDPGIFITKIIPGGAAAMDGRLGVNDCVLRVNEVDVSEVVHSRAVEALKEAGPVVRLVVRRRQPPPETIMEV

T7: RADIL, Q96JH8
T7 sequence (Q96JH8 971-1071, limits assumed, looked up): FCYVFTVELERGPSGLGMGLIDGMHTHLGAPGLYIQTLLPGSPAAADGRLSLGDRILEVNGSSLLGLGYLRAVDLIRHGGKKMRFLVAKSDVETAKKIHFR

T8: APBA1_1, Q02410
T8 sequence (Q02410 651-752, limits assumed, looked up): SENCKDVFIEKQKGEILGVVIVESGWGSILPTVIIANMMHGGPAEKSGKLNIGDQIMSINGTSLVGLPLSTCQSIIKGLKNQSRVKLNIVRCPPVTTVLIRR

T9: MPP2, Q14168
T9 sequence (Q14168 180-250, limits assumed, looked up): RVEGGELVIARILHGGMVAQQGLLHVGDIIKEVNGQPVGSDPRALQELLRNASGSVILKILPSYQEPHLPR

T10: SNTB1, Q13884
T10 sequence (Q13884 107-205, limits assumed, looked up): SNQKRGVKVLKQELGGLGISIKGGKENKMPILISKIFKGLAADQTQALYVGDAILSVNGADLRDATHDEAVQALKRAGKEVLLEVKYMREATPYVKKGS

T11: APBA1_2, Q02410
T11 sequence (Q02410 742-832, limits assumed, looked up): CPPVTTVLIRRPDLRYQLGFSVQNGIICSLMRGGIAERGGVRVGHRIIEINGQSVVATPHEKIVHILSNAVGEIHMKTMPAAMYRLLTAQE

T12: MPDZ_5, O75970
T12 sequence (O75970 695-796, limits assumed, looked up): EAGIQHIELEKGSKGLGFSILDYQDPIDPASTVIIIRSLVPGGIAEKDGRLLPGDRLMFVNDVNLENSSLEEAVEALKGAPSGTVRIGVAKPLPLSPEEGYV


target: T1, DLG3_2, Q92796; test: holdup assay; design: key: below the threshold = too weak to quantify, mostly under pKd 3.1 to 4; conditions: plain residues with an end cap or a label only (N-terminal biotin on a linker: ado-ado)

Row | pKd | Binder
1 | 4.35 | QLKSGRDSTV [TMEM178A, Q8NBL3]
2 | 3.99 | DLLGGGSDSI [TNRC6B, Q9UPQ9]

target: TJP1_2, Q07157; test: holdup assay; design: key: below the threshold = too weak to quantify, mostly under pKd 3.1 to 4; conditions: plain residues with an end cap or a label only (N-terminal biotin on a linker: ado-ado)
Sequence (Q07157 181-274): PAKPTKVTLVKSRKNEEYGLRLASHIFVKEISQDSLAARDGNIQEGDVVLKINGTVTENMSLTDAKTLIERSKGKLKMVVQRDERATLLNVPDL

Row | pKd | Binder
3 | below the threshold | QLKSGRDSTV [TMEM178A, Q8NBL3]
4 | 3.62 | DLLGGGSDSI [TNRC6B, Q9UPQ9]

target: LNX1_2, Q8TBB1; test: holdup assay; design: key: below the threshold = too weak to quantify, mostly under pKd 3.1 to 4; conditions: plain residues with an end cap or a label only (N-terminal biotin on a linker: ado-ado)
Sequence (Q8TBB1 371-470): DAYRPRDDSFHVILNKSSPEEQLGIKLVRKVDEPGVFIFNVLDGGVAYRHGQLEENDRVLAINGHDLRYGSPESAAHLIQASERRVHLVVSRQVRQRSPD

Row | pKd | Binder
5 | 3.84 | QLKSGRDSTV [TMEM178A, Q8NBL3]
6 | below the threshold | DLLGGGSDSI [TNRC6B, Q9UPQ9]

target: T2, GRIP1_2, Q9Y3R0; test: holdup assay; design: key: below the threshold = too weak to quantify, mostly under pKd 3.1 to 4; conditions: plain residues with an end cap or a label only (N-terminal biotin on a linker: ado-ado)

Row | pKd | Binder
7 | below the threshold | QLKSGRDSTV [TMEM178A, Q8NBL3]
8 | below the threshold | DLLGGGSDSI [TNRC6B, Q9UPQ9]

target: T3, LNX2_2, Q8N448; test: holdup assay; design: key: below the threshold = too weak to quantify, mostly under pKd 3.1 to 4; conditions: plain residues with an end cap or a label only (N-terminal biotin on a linker: ado-ado)

Row | pKd | Binder
9 | 3.49 | QLKSGRDSTV [TMEM178A, Q8NBL3]
10 | below the threshold | DLLGGGSDSI [TNRC6B, Q9UPQ9]

target: T4, APBA3_1, O96018; test: holdup assay; design: key: below the threshold = too weak to quantify, mostly under pKd 3.1 to 4; conditions: plain residues with an end cap or a label only (N-terminal biotin on a linker: ado-ado)

Row | pKd | Binder
11 | below the threshold | QLKSGRDSTV [TMEM178A, Q8NBL3]
12 | below the threshold | DLLGGGSDSI [TNRC6B, Q9UPQ9]

target: DLG4_3, P78352; test: holdup assay; design: key: below the threshold = too weak to quantify, mostly under pKd 3.1 to 4; conditions: plain residues with an end cap or a label only (N-terminal biotin on a linker: ado-ado)
Sequence (P78352 306-403): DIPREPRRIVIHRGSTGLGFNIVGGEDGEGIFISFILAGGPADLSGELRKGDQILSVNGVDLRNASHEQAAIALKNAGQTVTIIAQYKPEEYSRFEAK

Row | pKd | Binder
13 | below the threshold | QLKSGRDSTV [TMEM178A, Q8NBL3]
14 | below the threshold | DLLGGGSDSI [TNRC6B, Q9UPQ9]

target: PICK1, Q9NRD5; test: holdup assay; design: key: below the threshold = too weak to quantify, mostly under pKd 3.1 to 4; conditions: plain residues with an end cap or a label only (N-terminal biotin on a linker: ado-ado)
Sequence (Q9NRD5 17-115): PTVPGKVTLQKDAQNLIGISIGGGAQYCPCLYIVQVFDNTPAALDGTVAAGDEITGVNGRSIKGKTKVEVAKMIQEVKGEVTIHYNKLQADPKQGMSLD

Row | pKd | Binder
15 | 4.35 | QLKSGRDSTV [TMEM178A, Q8NBL3]
16 | below the threshold | DLLGGGSDSI [TNRC6B, Q9UPQ9]

target: PDZRN4_1, Q6ZMN7; test: holdup assay; design: key: below the threshold = too weak to quantify, mostly under pKd 3.1 to 4; conditions: plain residues with an end cap or a label only (N-terminal biotin on a linker: ado-ado)
Sequence (Q6ZMN7 213-318): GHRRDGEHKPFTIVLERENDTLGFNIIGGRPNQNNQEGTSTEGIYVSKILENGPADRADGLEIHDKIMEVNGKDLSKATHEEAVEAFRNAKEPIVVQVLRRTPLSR

Row | pKd | Binder
17 | 3.53 | QLKSGRDSTV [TMEM178A, Q8NBL3]
18 | below the threshold | DLLGGGSDSI [TNRC6B, Q9UPQ9]

target: DLG2_2, Q15700; test: holdup assay; design: key: below the threshold = too weak to quantify, mostly under pKd 3.1 to 4; conditions: plain residues with an end cap or a label only (N-terminal biotin on a linker: ado-ado)
Sequence (Q15700 189-283): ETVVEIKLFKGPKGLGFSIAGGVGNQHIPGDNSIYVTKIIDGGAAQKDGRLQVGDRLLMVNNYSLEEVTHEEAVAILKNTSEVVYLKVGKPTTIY

Row | pKd | Binder
19 | 4.4 | QLKSGRDSTV [TMEM178A, Q8NBL3]
20 | below the threshold | DLLGGGSDSI [TNRC6B, Q9UPQ9]

target: T5, TX1BP3, O14907; test: holdup assay; design: key: below the threshold = too weak to quantify, mostly under pKd 3.1 to 4; conditions: plain residues with an end cap or a label only (N-terminal biotin on a linker: ado-ado)

Row | pKd | Binder
21 | 3.91 | QLKSGRDSTV [TMEM178A, Q8NBL3]
22 | below the threshold | DLLGGGSDSI [TNRC6B, Q9UPQ9]

target: T6, DLG3_1, Q92796; test: holdup assay; design: key: below the threshold = too weak to quantify, mostly under pKd 3.1 to 4; conditions: plain residues with an end cap or a label only (N-terminal biotin on a linker: ado-ado)

Row | pKd | Binder
23 | 3.82 | QLKSGRDSTV [TMEM178A, Q8NBL3]
24 | below the threshold | DLLGGGSDSI [TNRC6B, Q9UPQ9]

target: CASK, O14936; test: holdup assay; design: key: below the threshold = too weak to quantify, mostly under pKd 3.1 to 4; conditions: plain residues with an end cap or a label only (N-terminal biotin on a linker: ado-ado)
Sequence (O14936 487-570): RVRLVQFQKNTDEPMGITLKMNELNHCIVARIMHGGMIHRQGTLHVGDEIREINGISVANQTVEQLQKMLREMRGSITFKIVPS

Row | pKd | Binder
25 | 3.54 | QLKSGRDSTV [TMEM178A, Q8NBL3]
26 | below the threshold | DLLGGGSDSI [TNRC6B, Q9UPQ9]

target: T7, RADIL, Q96JH8; test: holdup assay; design: key: below the threshold = too weak to quantify, mostly under pKd 3.1 to 4; conditions: plain residues with an end cap or a label only (N-terminal biotin on a linker: ado-ado)

Row | pKd | Binder
27 | 3.51 | QLKSGRDSTV [TMEM178A, Q8NBL3]
28 | below the threshold | DLLGGGSDSI [TNRC6B, Q9UPQ9]

target: ARHGEF12, Q9NZN5-2; test: holdup assay; design: key: below the threshold = too weak to quantify, mostly under pKd 3.1 to 4; conditions: plain residues with an end cap or a label only (N-terminal biotin on a linker: ado-ado)
Sequence (Q9NZN5 other isoform, or with tags, fused parts or gaps): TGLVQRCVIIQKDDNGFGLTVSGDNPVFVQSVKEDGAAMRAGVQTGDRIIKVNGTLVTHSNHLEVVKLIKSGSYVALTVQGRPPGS

Row | pKd | Binder
29 | below the threshold | QLKSGRDSTV [TMEM178A, Q8NBL3]
30 | 3.71 | DLLGGGSDSI [TNRC6B, Q9UPQ9]

target: T8, APBA1_1, Q02410; test: holdup assay; design: key: below the threshold = too weak to quantify, mostly under pKd 3.1 to 4; conditions: plain residues with an end cap or a label only (N-terminal biotin on a linker: ado-ado)

Row | pKd | Binder
31 | below the threshold | QLKSGRDSTV [TMEM178A, Q8NBL3]
32 | below the threshold | DLLGGGSDSI [TNRC6B, Q9UPQ9]

target: TJP2_1, Q9UDY2; test: holdup assay; design: key: below the threshold = too weak to quantify, mostly under pKd 3.1 to 4; conditions: plain residues with an end cap or a label only (N-terminal biotin on a linker: ado-ado)
Sequence (Q9UDY2 24-128): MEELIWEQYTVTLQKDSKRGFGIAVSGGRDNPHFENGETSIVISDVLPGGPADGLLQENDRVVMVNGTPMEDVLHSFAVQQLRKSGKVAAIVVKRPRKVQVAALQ

Row | pKd | Binder
33 | below the threshold | QLKSGRDSTV [TMEM178A, Q8NBL3]
34 | below the threshold | DLLGGGSDSI [TNRC6B, Q9UPQ9]

target: MAGI2_4, Q86UL8; test: holdup assay; design: key: below the threshold = too weak to quantify, mostly under pKd 3.1 to 4; conditions: plain residues with an end cap or a label only (N-terminal biotin on a linker: ado-ado)
Sequence (Q86UL8 772-865): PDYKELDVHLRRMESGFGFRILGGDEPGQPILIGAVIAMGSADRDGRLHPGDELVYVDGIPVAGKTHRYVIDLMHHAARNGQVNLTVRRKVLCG

Row | pKd | Binder
35 | 3.92 | QLKSGRDSTV [TMEM178A, Q8NBL3]
36 | below the threshold | DLLGGGSDSI [TNRC6B, Q9UPQ9]

target: LAP2, Q96RT1; test: holdup assay; design: key: below the threshold = too weak to quantify, mostly under pKd 3.1 to 4; conditions: plain residues with an end cap or a label only (N-terminal biotin on a linker: ado-ado)
Sequence (Q96RT1 other isoform, or with tags, fused parts or gaps): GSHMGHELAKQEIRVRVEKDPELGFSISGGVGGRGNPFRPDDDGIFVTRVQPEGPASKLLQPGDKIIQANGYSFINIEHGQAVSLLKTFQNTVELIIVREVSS

Row | pKd | Binder
37 | 3.63 | QLKSGRDSTV [TMEM178A, Q8NBL3]
38 | below the threshold | DLLGGGSDSI [TNRC6B, Q9UPQ9]

target: T9, MPP2, Q14168; test: holdup assay; design: key: below the threshold = too weak to quantify, mostly under pKd 3.1 to 4; conditions: plain residues with an end cap or a label only (N-terminal biotin on a linker: ado-ado)

Row | pKd | Binder
39 | below the threshold | QLKSGRDSTV [TMEM178A, Q8NBL3]
40 | below the threshold | DLLGGGSDSI [TNRC6B, Q9UPQ9]

target: T10, SNTB1, Q13884; test: holdup assay; design: key: below the threshold = too weak to quantify, mostly under pKd 3.1 to 4; conditions: plain residues with an end cap or a label only (N-terminal biotin on a linker: ado-ado)

Row | pKd | Binder
41 | 4.1 | QLKSGRDSTV [TMEM178A, Q8NBL3]
42 | below the threshold | DLLGGGSDSI [TNRC6B, Q9UPQ9]

target: T11, APBA1_2, Q02410; test: holdup assay; design: key: below the threshold = too weak to quantify, mostly under pKd 3.1 to 4; conditions: plain residues with an end cap or a label only (N-terminal biotin on a linker: ado-ado)

Row | pKd | Binder
43 | 3.63 | QLKSGRDSTV [TMEM178A, Q8NBL3]
44 | below the threshold | DLLGGGSDSI [TNRC6B, Q9UPQ9]

target: DLG1_2, Q12959; test: holdup assay; design: key: below the threshold = too weak to quantify, mostly under pKd 3.1 to 4; conditions: plain residues with an end cap or a label only (N-terminal biotin on a linker: ado-ado)
Sequence (Q12959 314-412): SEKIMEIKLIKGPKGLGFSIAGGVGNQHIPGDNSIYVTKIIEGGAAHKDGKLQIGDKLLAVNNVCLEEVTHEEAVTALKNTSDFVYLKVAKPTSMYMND

Row | pKd | Binder
45 | 4.64 | QLKSGRDSTV [TMEM178A, Q8NBL3]
46 | below the threshold | DLLGGGSDSI [TNRC6B, Q9UPQ9]

target: Inadl_10, Q8NI35; test: holdup assay; design: key: below the threshold = too weak to quantify, mostly under pKd 3.1 to 4; conditions: plain residues with an end cap or a label only (N-terminal biotin on a linker: ado-ado)
Sequence (Q8NI35 1673-1763): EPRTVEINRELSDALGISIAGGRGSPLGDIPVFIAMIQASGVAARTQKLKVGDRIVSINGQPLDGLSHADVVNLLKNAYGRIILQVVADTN

Row | pKd | Binder
47 | below the threshold | QLKSGRDSTV [TMEM178A, Q8NBL3]
48 | below the threshold | DLLGGGSDSI [TNRC6B, Q9UPQ9]

target: T12, MPDZ_5, O75970; test: holdup assay; design: key: below the threshold = too weak to quantify, mostly under pKd 3.1 to 4; conditions: plain residues with an end cap or a label only (N-terminal biotin on a linker: ado-ado)

Row | pKd | Binder
49 | 3.56 | QLKSGRDSTV [TMEM178A, Q8NBL3]
50 | below the threshold | DLLGGGSDSI [TNRC6B, Q9UPQ9]

target: MAGI3_2, Q5TCQ9; test: holdup assay; design: key: below the threshold = too weak to quantify, mostly under pKd 3.1 to 4; conditions: plain residues with an end cap or a label only (N-terminal biotin on a linker: ado-ado)
Sequence (Q5TCQ9 398-503): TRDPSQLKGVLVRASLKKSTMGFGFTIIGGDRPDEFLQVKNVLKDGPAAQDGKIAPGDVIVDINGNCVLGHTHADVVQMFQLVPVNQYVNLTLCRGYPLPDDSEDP

Row | pKd | Binder
51 | 4.12 | QLKSGRDSTV [TMEM178A, Q8NBL3]
52 | below the threshold | DLLGGGSDSI [TNRC6B, Q9UPQ9]
